The values below come from a protein production outcome set (Wang et al. 2014).

The nature of this series: label from the status in PepcDB records.
On to “MGTTGFTIIDLIILIVYLLAVLVAGIYFSKKEMKGKEFFKGDGSVPWYVTSVSIFATMLSPISFLGLAGSSYAGSWILWFAQLGMVVAIPLTIRFILPIFARIDIDTAYDYLDKRFNSKALRIISALLFIIYQLGRMSIIMYLPSAGLSVLTGIDINILIILMGVVAIVYSYTGGLKSVLWTDFIQGVILISGVVLALFVLIANIKGGFGAVAETLANGKFLAANEKLFDPNLLSNSIFLIVMGSGFTILSSYASSQDLVQRFTTTQNIKKLNKMLFTNGVLSLATATVFYLIGTGLYVFYQVQNADSAASNIPQDQIFMYFIAYQLPVGITGLILAAIYAASQSTISTGLNSVATSWTLDIQDVISKNMSDNRRTKIAQFVSLAVGLFSIGVSIVMAHSDIKSAYEWFNSFMGLVLGLLGGVFILGFVSKKANKQGAYAALIVSTIVMVFIKYFLPPTAVSYWAYSLISISVSVVSGYIVSVLTGNKVSAPKYTTIHDITEIKADSSWEVRH”, for which the protein production entry is reported as “failed”.

As for “MGTTQLESVPEPKYWHLKTVLSEALDSEFSVGEILPNERDLAARFGVARATLRQALEQLELEGRLQRRRGVGTTVAPPRMGVAVGSEQHTWPGAAGDAWQPVDCTVAAPPPAVAGVLETGRNEQVHTVRRSRVTHGHPVAAELLYIPDFSVPDLSAIDAPSGAARARAVLRELQRLELEGQDRAVELGSARAEDAKELDRLPGAPVLVVTTRFFAEGRAAAVSVATYRADTCRLTFGDSGGVEIHHDPERRAS”, the protein production result is recorded as “failed”.

Consider “MGTYVEPSKLSYGEYLESWFNTKRHSVGIQTAKVLKGYLNSRIIPSLGNIKLAKLTSLHMQNYVNSLRDEGLKRGTIEKIIKVIRNSLEHAIDLELITKNVAAKTKLPKADKEELEHHHHHH”, for which the protein production entry was “failed”.

On to “MGVFLDKSIKDVVDGLNVRYFLPDIQREYVWLKKADEKKIEQLFDSILRGYPIGSFLFWKLQKEDIAKSDEQDSDKLNFQLYQFITNYDVRKPHNEKIRIEQINRDDLYIVANSV”, for which the protein production entry is given as “failed”.

Take “MGVFLVLLGGIFWAISGVLAEYLFKNNYSVDWVCFYRLLSTGLILIFLSFKTQKILVFANLKESLSICIFGFFGLLLTQFGYFKAIYYTDAGTATMIQYCAPLIIMLYLCFKNKKFPKLIEIFALILIIFALFLLATKGDIEAVVLNYWGIFWAVIGAFGVAFYSLSAREVILKYGLFWIMGWASLFASFVFLLILQFDKGLIHYAFNLKAFFSMGGIVFIGTIGAFCLYLKGVEYIGALRASMIASIEPVAAALMSFLFLKTRYSLLDIFAFVLIILSVILNAKKTKAS”: the protein production entry is “failed”.

“MGVISAYAVVHERAAIIDPGTAKGAEIILDEIDRSWNVEYICPTHIHIDHGGGAARLAKALDAKIIVHPRGVKHVVNPEKLWEASKAVLGEVAEIYGKPESIDESKVIAVEDEQEFDLGGERLKVFHAPGHAPHMLVYYLTNSKVLFPADAVGMCFGGVVFPLTPPPFDADAALKTLKRLKGLKVDYVAFTHYGVVELEHHHHHH”: the protein production entry is reported as “failed”.

“MGVKRKKMGKVAGFTEWTAEDLEAFRARWPIGTAQRLALELYQWTGARCVDVIRLGPQMVGRDGVLTYVQQKTGNPAHVPWTCPAFGLEEQRADLMRCLPVGSPVYMLTEYGKPRTQKGVSQWFSAAAREAGLESRTAHGLRKYRMNALAEHGASVLVMQSWVGHTTLLEVQEYTRLEHHHHHH”: the protein production entry is reported as “not failed”.

In the case of “MGVNETGYVLIYGGSSWVSQPQALETIYPAENWQEIIQDFRQKQPDLPVVVIQGPDDEQFVRSLRDYSLDIKVTSPDNVGKLTAMIAGANLMLTTDSAPLHLSVAVQTYTIALFGSTDPVKLLPNSDKLLGIKSSTGRVADILPKAVLEKVWGGLEHHHHHH”, the protein production entry is “failed”.

With “MGVRLVLRLVPRLVTRFTPLGLGMVALGCALVASFYSPPSFASIWDLLTNKRGVSQASVSKDSPRIELVGTLPADTELELIGFYYSSICTEKEMYFPSGDIANPQWRTKGTTSQLRQVVTSLHNASHFTQSVALQGGGACEWQLTNIQLNMSLLPSHRLWQEAQSLKKQYLAELPVAKVKDEALEKDAFKQSFDLIPTAKEADAASADSNDATITFSPIYYPIYSYAPEDKQPFDVGLKSSLQREVSDRWSLQHSRRIRLADERVTRVNFTPQIAEDYAVNIHILDRKSKVSYPDGTEFTYIKAGLRLYPYGSAESRFNSLQRSARLEDKRQLAKIYDSGIEHVFEGDKAKAEVLYRELGEAGDMESINWLRERARWGYIKDGQYWLARAAKLGDIQAQLELINQPLSVIPQGKVNTGQAKIREQQAWQTLTELTKQGIPQAVSTMAYYQVFSCSPYFNTTAALDNYRKSVKAQPDLARDAAETYYYFKEDLAQAREFFEIAAEREIDVAAEYAGILLAAEQRDPKRARYWLEKVVTAGDKQYIQQDVLGYAYFRLASLLDAGEGGDADPKRAITLYQQSIELGEGFSNDYQAKAKERLQSLQERHL”, the protein production entry is recorded as “failed”.

Consider “MGVVFAFGFYLIFIKLTGLKLMDYFPRFKENRLKMIFSILSVILAFLINWLIMKNFSFLIEIIHPIASVWIFIILIYLLLRFLFLKRVPLSNYEKKFMGNMSAIAIFLELLKIIEYVDEHNIASPITVALVFFIPVVVFFNCKYFYEMELSS”, for which the protein production result is “failed”.

As for “MGWKMQATVTEIGKHAIDDSEKMIILFGETATDTLKQHAVIQSFPEKDQVTLAEGDHLKIGDTNYTITKVGSFANSNLQSIAHSTLIFADAPTDEDDVIRNGVYLTPHQLPKITIGTTIDYLVNGA”, the protein production result is reported as “not failed”.

As for “MGWVRTKALTMEQPSAPSLTRWLFAGVLMAIIGVLLFILHASGTVKIISVINIWWVSLMPAGCWLLIFCLRCYLWDRDLKAHQFLLKEAEYGQQRWEDWAGRWLAVLSSAVLLPDHISAAHWGSERPQQYGLARRINYLPVEEPVQLSAMHALLTSIEERVQCLPEELPLYVTLITDNPSPELTSSFSNLWKEHIPGRAVPDDITVTGSFSLSEVEERLKQPVLTVNLLLVIQLNGGTAYSDGLAVLLLTSDDVAQKYHLPHSSRLLRPMPLDMTNFEDDITLFLETQTVACQTPSVIGDAKKWTERSAALITQGGKMHTPWKAEDIALLEKWCGIPGPAAPWLLTALAADLVSLRKQPLLALFSSEQEHFISTITPGSEDDYTG”, the protein production result is given as “failed”.

Turning to “MGYLIGGDIISSSPFTKIFYGSCRKIAVFIFSVLSLTIISGILMYFIEGETGGFTSPSLSIYWAIATLLTVGYGDVVLQTSVGRAMASFVSVLGLSIIVVPIFIVIAEIFGLLSRTFSW”, the protein production result is “failed”.

Take “MHDIILMPCPEVSIIILTRNGKATIGECLKQVYAQNYTNFEVIVIDSASTDGTPDIVNNFPVRFFSIDVKDFGHGKTRNYGAKLSKGKYLAYLTQDASPFNEHWLENLIRNFSDEEVAGVYSRNVPRSDCDPFEARYISSGWGSDREVKSMQNCRNYKKLVFFSNTSSCIRKDTWEKFPFNELLVQTEDQDWSKRVLEAGYKIVYDPGSVVVHSHNNSLKILFKKYFDAGTAHIQIFKNRNNVYLPLIPFFSVISTFLDIRFMFFNNYETINIIKWVPRAVVRHFVEATAFWLGLHFDILPQALKRKFTASGHY”: the protein production entry was “failed”.

With “MHFKKSLVRSLITLAITATASTTVLANEVSGDISKFKSVGNEVNTKQKATGYIVQLKGKTAIAQAQEIGELLPTNQLVANTGNRYNAHTPAMEAYTKALENKQKQVASSIDSINILHSFKHTYNGFTAKLNAKQKAQLESHPDVIGVYEDKLETVNTANTPEFLGLTGAGGQHAMNIKGEGVIIGVIDTGVWPENPSFADDGSYSDPADLGWLGSCDTGTDEEFACNNKLIGAKYFDSSFSSQYDIQYDLGEFDSPRDADGHGSHTASTAGGNESVAAMLSGTPVGTVSGMAPRARIAAYKVCWNSDYKNPEGGDEAGCFGGDTMAAIDAAVTDGVDVINYSIGGSRTDLTVPATAAMLNATAAGVFVAVSAGNDGPDKETVGTPAPWVTSVAASTYNGTSAIVGKALDITSGTLAGSSILSVPSGFSPATVGLSGELALAEPVQACNDAPLTNGEDLAGKIALIARGSCAFTEKFLNAQNAGAVGAIIYTTEGTSPFSMGGTDPAVTITGSMISFADGQSLTASIEDGSTSVAFTDNTAAGEAVEVGNTMADFSSRGPNLNTYDIIKPDITAPGVKILAATTSAPMFGTQGETFKYLQGTSMSSPHIAGLAALFKESNSSWSPAQIKSAMMTTARQNLTKEDGTTQADPYDFGSGHVAPVSALDPGLLFDTNLADYLAFLCGQDKEAFVSGYDTSCADLATAGFSTDASQLNLASIAIAELLEPETIFRTVSNATPIASSYTATVEAPAGFDISVQTFDAAGEETEASTLDVAAEGGKASFAITVSQTETTEIEAWKFGAITWTDGAGHSVRLPLAIKAIPSVQIEVPELISGDLNRGRFRFPVKMLYSGRTSIKHAGLVAPFGTAGTVEADPAQEFEFLGAGTNYHLFHIPEGTQVARFSLSDALVTEEGSDLDLYVYRCDKWSCAQVANSLNGGSNEDVVLTNPEPRADVDVGDVYVTMIHGYSTGAATETDYTMVGWIADQAERTTRVISSRRAINGRFNYTSILTRGLPTGTTYMGAVTYFNAEGEAEGTTVLELKN”, the protein production result was “failed”.

Regarding “MHFNLPTYLTLLRIVLIPVLTVAFYLPWSGAHVVSGVIFAIAAITDWLDGYLARRMGLATRFGAFLDPVADKLMVAVALVLIVQAEPRPLIALASAIIIGREITIASLREWMAEIGQRKRVEVSALGKWKTTFQMLAITLLLLGLDIPHGGVKTTGELLLVVSATLTLWSMIVYLQAAMPVFKAGAEAE”, the protein production entry is listed as “not failed”.

Regarding “MHGPPESQEPCGTFGPDETTGATSTAASRGEARRLPRGGVLWALVDCNNFYASCERLFRPDLKGRPVVVLSNNDGCVIARSAEAKALGVPMGAPEFKVRDMLRAHDVAVFSSNYALYGDLSQRVMRTLATVVPRVEVYSIDEAFIPLPAALAADPVAVGRTLRQRVAQWVGIPVSVGVGPTRTLAKLANRLSKQDSAYGNVFDLTPETVDMDRVLASVDVGDVWGVGRRSAEMLRGRGILTARALRDADPLWVRQRMTVTGWRTQQELRGMPCLTDDDLPVPRRSIRSSRSFGQMVRTLEPLREAVATFTARAVAKARAEGLVASCIEVHIRTPRHTERPRYDETTTITLPCPTADTGLCIRHALTGLERIFREGYLYAKAGVTLFGLEPAAGRQGSLLDLLDGSHEHKARRERLMAALDAVNLRHGRGSIRHGAEGDPGAAWHMSQKYRSPRYTTAWEELPEVLCR”, the protein production entry was “failed”.

On to “MHHYRVSGWTLATEIPLPHLFPCSAPAGEAAADITLRQGPVPPPPVPLRLDRDGIQVGADGHTVIDIPNCVRIGLTGGRDIMVDPAPGASWPEIQTWLLGPGLGVICHQRGVLPLHACAIRTGKGGLAIVGNSGAGKSTTATALVQRGHRLLGDDVLVVDPDTGLAQPCFPMVKLWDSSRSALDIGQEGQQSVGGKIGKWHMPMLAAFDPVPRPLSAIVHLRADPAARRPVLTRWPRPHAAAVLDAMTYRVYLADALHGRRHVLSAATRLAAHVPVWELVRTADFADLAEMLDMLEGLAGALEHHHHHH”, for which the protein production result is recorded as “failed”.

With “MHIHILGICGTFMGSLALLARALGHTVTGSDANIYPPMSTQLEQAGVTIEEGYLIAHLQPAPDLVVVGNAMKRGMDVIEYMLDTGLRYTSGPQFLSEQVLQSRHVIAVAGTHGKTTTTTMLAWILHYAGIDAGFLIGGVPLVNTTDTNLQQVFAHSSYLGTEKDDSDNSVNTGYFVIEADEYDSAFFDKRSKFVHYRPRTAILNNLEFDHADIFADLDAIQTQFHHMVRMIPSTGKIIMPAATISLEDTLAKGVWTPIWRTSVIDSTISSVRREDSPLENSQAENSSDWQAELISADGSQFTVSFNDNKEATALVNWSMSGLHNVNNALVAIAAAYNIGVSVKTACAALSAFAGIKRRMELIGDVNDILVFDDFAHHPTAITTTLDGAKKKLADRRLWAIIEPRSNTMKMGIHQDSLAQSATLADHTLWYEPTGLEWGLKEVIDNATIANPSIGSQQVLSSVDDIIKHICTHAKAGDAIVIMSNGGFEGIHQRLLTALGNIVAIL”, the protein production result is listed as “not failed”.
